Assay results published in IntAct's records for PubMed 22151054.

B1: Myeloid leukemia factor 1 (Homo sapiens), P58340 (parent)
chain: MFRMLNSSFEDDPFFSESILAHRENMRQMIRSFSEPFGRDLLSISDGRGRAHNRRGHNDGEDSLTHTDVSSFQTMDQMVSNMRNYMQKLERNFGQLSVDPNGHSFCSSSVMTYSKIGDEPPKVFQASTQTRRAPGGIKETRKAMRDSDSGLEKMAIGHHIHDRAHVIKKSKNKKTGDEEVNQEFINMNESDAHAFDEEWQSEVLKYKPGRHNLGNTRMRSVGHENPGSRELKRREKPQQSPAIEHGRRSNVLGDKLHIKGSSVKSNKK

Variants of: B1
Settings: with 1433e_human YWHAE

Variant | effect of a mutation on the interaction
F33A | decreasing interaction
